Patent publication US20240287172A1 (SCIRHOM, published 2024)

How the values were obtained:
miR2-FL-WT-FLAG = biological target: T1, miR2-FL-WT-FLAG (mouse, UniProt Q80WQ6 1-827); assay: FACS, MEF-DKO-miR2-FL-WT-FLAG cells
T1 construct: on MEF-DKO cells
T1 sequence: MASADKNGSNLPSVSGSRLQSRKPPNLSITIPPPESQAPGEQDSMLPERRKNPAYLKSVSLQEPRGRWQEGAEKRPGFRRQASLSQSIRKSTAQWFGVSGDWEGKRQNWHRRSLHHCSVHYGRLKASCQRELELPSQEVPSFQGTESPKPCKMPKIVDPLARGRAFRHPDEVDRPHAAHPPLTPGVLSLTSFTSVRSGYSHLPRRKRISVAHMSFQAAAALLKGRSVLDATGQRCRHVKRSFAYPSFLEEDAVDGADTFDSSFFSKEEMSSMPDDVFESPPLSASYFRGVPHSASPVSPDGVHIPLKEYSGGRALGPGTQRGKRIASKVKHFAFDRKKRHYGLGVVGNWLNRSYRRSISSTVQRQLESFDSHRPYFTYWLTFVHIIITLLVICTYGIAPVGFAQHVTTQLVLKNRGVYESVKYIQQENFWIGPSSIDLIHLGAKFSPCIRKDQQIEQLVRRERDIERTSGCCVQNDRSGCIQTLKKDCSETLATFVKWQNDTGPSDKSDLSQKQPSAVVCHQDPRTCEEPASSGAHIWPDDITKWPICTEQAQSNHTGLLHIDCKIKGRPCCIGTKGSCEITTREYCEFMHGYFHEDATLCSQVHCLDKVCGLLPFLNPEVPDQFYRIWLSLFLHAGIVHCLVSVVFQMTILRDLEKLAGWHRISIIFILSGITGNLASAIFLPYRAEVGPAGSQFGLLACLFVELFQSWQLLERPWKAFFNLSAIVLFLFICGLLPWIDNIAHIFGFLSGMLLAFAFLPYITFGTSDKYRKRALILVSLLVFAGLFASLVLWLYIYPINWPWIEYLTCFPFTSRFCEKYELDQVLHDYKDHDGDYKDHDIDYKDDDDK
Description: In brief, immortalized MEF-DKO-EV control cells, MEF-DKO-hiR2-FL-WT-FLAG cells and MEF-DKO-miR2-FL-WT-FLAG cells were harvested with 10 mM EDTA in PBS, washed and resuspended in FACS buffer (PBS, 3% FBS, 0.05% sodium azide), and seeded in Nunc U-bottom 96-well plates (Thermo Fisher Scientific, USA) at approximately 3×10⁵ cells per well. To pellet cells and remove supernatants, the plates were centrifuged at 1,500 rpm and 4° C. for 3 minutes. For primary staining, cells were resuspended in 100 μl per well of either FACS buffer alone (controls), mouse monoclonal anti-FLAG IgG (Sigma-Aldrich, USA) at 3 μg/ml FACS buffer or the antibodies of the invention also at 3 μg/ml FACS buffer and incubated on ice for 1 hour. Afterwards, plates were centrifuged at 1,500 rpm and 4° C. for 3 minutes and washed twice with 200 μl per well of FACS buffer. For secondary staining, cells were spun down and resuspended in 100 μl per well of PE-conjugated goat anti-mouse IgG F(ab′)2 detection fragment (Dianova, Germany) diluted 1:100 in FACS buffer. Protected from light, the cell suspensions were incubated on ice for 1 hour. Plates were then centrifuged at 1,500 rpm and 4° C. for 3 minutes and washed three times with 200 μl per well of FACS buffer. Finally, cells were resuspended in 150 μl per well of FACS buffer and analyzed using a BD Accuri™ C6 Plus flow cytometer (Becton Dickinson, Germany).

[1] = biological target: T2, human iRhom2, endogenously expressed (human, UniProt Q6PJF5 1-856); assay: cell-based or functional assay
T2 sequence: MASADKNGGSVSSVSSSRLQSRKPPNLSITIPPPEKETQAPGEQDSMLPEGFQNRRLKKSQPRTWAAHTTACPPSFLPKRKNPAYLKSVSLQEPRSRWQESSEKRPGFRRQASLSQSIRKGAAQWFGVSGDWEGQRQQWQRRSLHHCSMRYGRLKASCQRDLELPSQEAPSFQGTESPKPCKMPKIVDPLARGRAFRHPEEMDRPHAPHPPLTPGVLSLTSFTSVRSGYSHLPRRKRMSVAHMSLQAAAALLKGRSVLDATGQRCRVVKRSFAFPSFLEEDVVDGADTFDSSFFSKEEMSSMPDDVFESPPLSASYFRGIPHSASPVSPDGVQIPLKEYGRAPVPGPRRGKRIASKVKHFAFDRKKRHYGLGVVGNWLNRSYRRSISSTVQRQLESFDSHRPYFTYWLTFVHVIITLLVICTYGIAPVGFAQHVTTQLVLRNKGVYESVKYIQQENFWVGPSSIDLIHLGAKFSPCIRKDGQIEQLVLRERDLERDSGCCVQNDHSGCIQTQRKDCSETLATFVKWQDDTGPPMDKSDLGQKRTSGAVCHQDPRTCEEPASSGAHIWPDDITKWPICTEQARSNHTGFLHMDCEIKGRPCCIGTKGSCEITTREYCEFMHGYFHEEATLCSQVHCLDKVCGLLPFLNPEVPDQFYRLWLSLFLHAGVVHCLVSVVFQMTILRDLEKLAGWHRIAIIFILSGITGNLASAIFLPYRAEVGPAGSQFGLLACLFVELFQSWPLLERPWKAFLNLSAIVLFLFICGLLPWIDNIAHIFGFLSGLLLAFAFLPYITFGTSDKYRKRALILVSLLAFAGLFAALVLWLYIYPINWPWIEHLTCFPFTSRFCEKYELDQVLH

Binder	binding result (miR2-FL-WT-FLAG)	LPS-induced TNFα release from PBMCs of healthy donors, percent inhibition, 1 µg/ml [1] [%]	LPS-induced TNFα release from THP-1 cells, percent inhibition, 10 µg/ml, hybridoma-purified [1] [%]	LPS-induced TNFα release from THP-1 cells, percent inhibition, recombinant antibody [1] [%]	LPS-induced TNFα release from human macrophages of healthy donors, percent inhibition, 10 µg/ml [1] [%]	PMA-induced HB-EGF release from PBMCs of healthy donors, percent inhibition, 1 µg/ml [1] [%]	PMA-induced HB-EGF release from THP-1 cells, percent inhibition, 3 µg/ml [1] [%]	PMA-induced HB-EGF release from U-937 cells, percent inhibition [1] [%]	PMA-induced IL-6R release from PBMCs of healthy donors, percent inhibition, 1 µg/ml [1] [%]	PMA-induced IL-6R release from THP-1 cells, percent inhibition, 1 µg/ml [1] [%]	PMA-induced IL-6R release from U-937 cells, percent inhibition, 1 µg/ml [1] [%]	PMA-induced IL-6R release from U-937 cells, percent inhibition, 3 µg/ml [1] [%]	PMA-induced TGFα release from PC3 cells, percent inhibition, 1 µg/ml [1] [%]	PMA-induced TNFα release from U-937 cells, percent inhibition, 1 µg/ml [1] [%]	PMA-induced TNFα release from U-937 cells, percent inhibition, 3 µg/ml [1] [%]
antibody 42 (antibody, V domains shown, mouse IgG, kappa light chain; also called clone #42; purified antibody 42) VH: QVTLKESGPGILQPSQTLSLTCSLSGFSLSTFGRGVGWIRQPSGKGLEWLAHIWWDDEKYYNPALKSRLTISKDTSKNQVFLRIANVDTADTATYYCARIQNYGSNYWYFDVWGTGTTVTVSS VL: LIVLTQSPAIMSASPGEKVTMTCGATSRISYMFWYQQKPGSSPRVLIYDTSNLASGVPVRFSGSGSGTSYSLTISRVEAEDVATYYCQQWNSYPLTFGAGTKLELK	no binding (tested: 3 µg/ml)	77	76.7	75.9	93.2	77.6	76.6	104	85	85.9	80.8	84.4	14.3	94.5	94.1
antibody 34 (antibody, V domains shown, mouse IgG, kappa light chain; also called clone #34; purified antibody 34) VH: QVTLKESGPGILQPSQTLSLTCSFSGFSLSTFSLGVGWIRQSSGKGLEWLAHIWWDDEKYYNPALKSRLTISKDTSKNQVFLKIANVDAADTATYYCARAYYSKSYYALDYWGQGTSVTVSS VL: DIQMTQSPSSLSASLGERVSLTCRASQEISGYLSWLQQKPDGTIKRLIYAASTLDSGVPKRFSGSRSGSDYSLAISSLESEDFADYYCLQYANFPFTFGSGTKLEIK	no binding (tested: 3 µg/ml)		27.3	73.8			64.2	98.2		71.1	69.3	74.6		68.6	79.9
antibody 43 (antibody, V domains shown, mouse IgG, kappa light chain; also called clone #43; purified antibody 43) VH: QVALKESGPGILQPSQTLSLTCSFSGFSLSTFGMGVGWIRQSSGKGLEWLANIWWDDDKYYNPALKSRLTISKDASKNQAFLKIANVDTADTATYYCARIGNYGSNYWYFDVWGTGTTVTVSS VL: QIVLTQSPAIMSASPGERVTMTCSANSRISYMYWYQQKPGSSPRLLIYDTSNLASGVPVRFSGSGSGTSYSLTISRMEAEDAATYNCQQWSSYPLTFGAGTKLELK	no binding (tested: 3 µg/ml)		74.8	78.5						72.9	76.1		12.4	78.3	
antibody 44 (antibody, V domains shown, mouse IgG, kappa light chain; also called clone #44; purified antibody 44) VH: QVTLKESGPGILQPSQTLSLTCSFSGFSLSTFGMGVGWIRQPSEKGLEWLAHIWWDDDKYYNPALKSRLTISKDTSKNQIFLKITNVDTAETATYYCSRIGNYGSNYWYFDVWGTGTTVTVSS VL: QIVLTQSPAVMSASPGEKVTMTCTASSSVYYMYWYQQTPGSSPRLLIYDTSNLASGVPVRFSGSGSGTSYSLTISRMEAEDAATYYCQQWNTYPLTFGAGTKLELK	no binding (tested: 3 µg/ml)		32.2	73.2			67.5	100		73	71.8	82	14.1	76.5	86.3
antibody 46 (antibody, V domains shown, mouse IgG, kappa light chain; also called clone #46) VH: QVTLKESGPGILQPSQTLSLTCSFSGFSLSTFGMGVGWIRQPSGKGLEWLAHIWWDDDNYYNQALKSRLTISKDNTKNQVFLNIANVDTADTATYYCARIRSYDYDVRYAMDYWGQGTSVTVSS VL: DIKMTQSPSSMYASLRERVTITCKASQDINSYLSWFQQKPGKSPKTLIYRANRLVDGVPSRFSGSGSGQDYSLTISSLEYEDLGIYYCQQYYEFPLTFGAGTRLELK	no binding (tested: 3 µg/ml)			36.1											
antibody 57 (antibody, V domains shown, mouse IgG, kappa light chain; also called clone #57) VH: QVTLKESGPGILQPSQTLSLTCSFSGFSLSTFGMGVGWIRQPSGKGLEWLAHIWWDDDKYYNPALKSRLTISKDTSKNQIFLKIANVDTADSATFYCARIENYGSNYWYFDVWGTGTTVTVSS VL: QIVLTQSPAIMSASPGEKVTMTCSASSSVSYMYWYQQKPGSSPRVLIYDTSNLASGVPVRFSGSGSGTSYSLTVSRMEAEDAATYYCQQWNSYPLTFGAGTKLELK	no binding (tested: 3 µg/ml)			59.7											
antibody 49 (antibody, V domains shown, mouse IgG, kappa light chain; also called clone #49) VH: QVTLKESGPGILQPSQTLSLTCSFSGFSLSTFGMGVGWIRQPSGKGLEWLAHIWWDDDKYYNPALQSRLTVSKDTAKNQVFLKIANVDTADTAIYYCARVGNYGSNYWYFAVWGTGTTVTVSS VL: QIVLTQSPAIMSASPGEKVTMTCSASSSVSYMYWYQQKPGSSPRLLIYDTSNLASGVPVRFSGSGSGTSYSLTISRMEAEDAATYYCQQWNSYPLTFGAGTKLELK	no binding (tested: 3 µg/ml)			59.9											
antibody 56 (antibody, V domains shown, mouse IgG, kappa light chain; also called clone #56) VH: QVTLKESGPGILQPSQTLSLTCSFSGFSLSTFGMGVGWIRQPSGKGLEWLTNIWWDDDKYYNSVLKSRLTISKDTSKNQVFLKIANVDTADTATYYCARIAAYGSNYWYFDVWGTGTTVTVSS VL: QIVLTQSPAIMSASPGEKVTMTCSASSSVSYMYWYQQKPGSSPRVLIYDTSNLSSGVPVRFSGSGSGTSYSLTISRMEAEDAATYYCQQWSSYPLTFGAGTKLELK	no binding (tested: 3 µg/ml)			65.8											
